The values that follow come from the supplement of paper PMC10724198.

± gives the standard deviation of the averaged measurements.
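Also: PSI is a weighted mean of sequencing reads over stability bins, variants kept only with over 10 reads, mCherry proximal and sfGFP distal, peptide attached via GGGS linker.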

The test system of this data set is Saccharomyces cerevisiae. The data set is described as follows: protein stability index of tFT-peptide fusion (C-terminal peptide) (PSI (0-1 scale)); higher = more stable (slower turnover). The following applies: genetic background: wild type; temperature: 30 C.
As to LGLGPKNLSYSE, the protein stability index was 0.676 ± 0.043. LGLLVLARFSPL displayed a protein stability index of 0.7076 ± 0.0053. For LGRGGVAWGAWW the value was 0.836 ± 0.11; for LGSIKCKLSSGI, 0.666 ± 0.052; for LGSLSPRLPSLR, 0.672 ± 0.091. For LGTGKSGLCVWE the value was 0.665 ± 0.012; for LGVCVGFRLLWV, 0.579 ± 0.026; for LGVFNRMKHSKH, 0.6702 ± 0.0029. For LGVSYAPLPFLS the value was 0.65 ± 0.03. Turning to LGWGRWFWGVRG, the protein stability index came to 0.653 ± 0.026. With LGYSYHGVASRG the figure was 0.698 ± 0.013.

The sequence LHCKRPTPLTDS came in with a protein stability index of 0.657 ± 0.019.

Consider LHGHFIRLIRIG, for which the protein stability index amounted to 0.477 ± 0.054. For LHLGHAGQACPA the value was 0.6277 ± 0.0022; for LHLPLPPLQLSL, 0.697 ± 0.0072; for LHPGPPASPPPL, 0.7127 ± 0.0053. As to LHPRCVLPHFRV, the protein stability index stood at 0.627 ± 0.032. For LICLTIHNEGSK the value was 0.583 ± 0.017; for LIDKPNNGVWIS, 0.587 ± 0.042; for LIDLLRQVNVLR, 0.649 ± 0.0096.

Sequence LIENVGDLETSR had a protein stability index of 0.665 ± 0.059. With LIGALSDCGFLG the figure was 0.683 ± 0.031; with LIHSSCSCPWCD, 0.666 ± 0.011. In turn, LIILKNKRKNKI yielded a protein stability index of 0.704 ± 0.04. For LILFQYFYLPMT the value was 0.517 ± 0.044; for LIPALPPPLPPP, 0.673 ± 0.0056; for LIPCFSPLPSPF, 0.721 ± 0.018.

LIPFAFVHPVFL displayed a protein stability index of 0.62 ± 0.048. The sequence LIQKQTGKKKKP registered a protein stability index of 0.7279 ± 0.0051. With LIRGVVVGLDGD the figure was 0.685 ± 0.021; with LIRIHPNGPKFM, 0.708 ± 0.083; with LIRYVPFSYVLV, 0.599 ± 0.007. With LISLGTYLINGF the figure was 0.6441 ± 0.0051; with LISLSHLSANQM, 0.665 ± 0.012.

In turn, LISNEGASRWDL showed a protein stability index of 0.625 ± 0.018. With LISRQFPNHGWT the figure was 0.675 ± 0.044; with LITDSQWLSSLS, 0.731 ± 0.02. In turn, LITGRGFGFVVV displayed a protein stability index of 0.674 ± 0.024. For LIWRQEDGGPMT the value was 0.747 ± 0.01; for LKGSVGGVCHTC, 0.709 ± 0.032; for LKKIEPRKNDKI, 0.719 ± 0.025. For LKKKSHRIKRSI the value was 0.58471 ± 0.00035; for LKMRIYEKNGKE, 0.669 ± 0.049; for LLCIPFPTRSLI, 0.803 ± 0.28.

Turning to LLEGSFFCGNSS, the protein stability index was determined as 0.726 ± 0.037.

In the case of LLFLLGTLYHPY, the protein stability index came out at 0.635 ± 0.11.

LLFTFFFLLLFS yielded a protein stability index of 0.527 ± 0.23. For LLFTFLPFRTVR the value was 0.709 ± 0.044; for LLGASIIGQFYL, 0.758 ± 0.011. For LLGDPGDFFPAS the value was 0.713 ± 0.028.

As to LLGLWSFLIPPS, the protein stability index was 0.677 ± 0.0023. Take LLGRIASCKIWL: the protein stability index is 0.657 ± 0.019. With LLHFSSPPLLPV the figure was 0.634 ± 0.055; with LLHVPIVFPRLI, 0.62 ± 0.043; with LLHWGRWSRGRR, 0.694 ± 0.071. Regarding LLIHLKDFYCFV, the protein stability index is 0.855 ± 0.019. For LLLFPSSFIFFY the value was 0.629 ± 0.055; for LLLGSFFNKPTT, 0.678 ± 0.035; for LLLLFWSGSCGC, 0.648 ± 0.013. For LLLPIIPRKLDL the value was 0.673 ± 0.022. Sequence LLLPPLPPLSLS yielded a protein stability index of 0.7135 ± 0.0058.

In the case of LLLPPLSSSPPP, the protein stability index worked out at 0.7111 ± 0.0032. For LLLSPAFFSCFL, the protein stability index was found to be 0.638 ± 0.095.

As to LLMPRTKEEYDN, the protein stability index was found to be 0.601 ± 0.24. For LLNLQEEADLPS the value was 0.724 ± 0.035; for LLPALPLPLSLT, 0.64 ± 0.013; for LLPLLYKWLGLR, 0.681 ± 0.025. On to LLPLPPLLRLPL, for which the protein stability index was found to be 0.5803 ± 0.001. With LLPLPPPPLFLP the figure was 0.705 ± 0.011; with LLPPFPPSSPAF, 0.708 ± 0.036; with LLPPLPLSPSAP, 0.685 ± 0.096. With LLPPPPPPTLYP the figure was 0.699 ± 0.016; with LLPPPPSPPTPS, 0.686 ± 0.035.

As to LLPSPSPASSPS, the protein stability index was 0.74 ± 0.1. With LLPSSPRTFPLL the figure was 0.6731 ± 0.0008.

In the case of LLPVFFPCFPLP, the protein stability index is 0.696 ± 0.069. For LLRFVGVRVRGA the value was 0.646 ± 0.094; for LLRLMSPTPFTP, 0.703 ± 0.037. As to LLRLPPPSPRYH, the protein stability index is 0.782 ± 0.019. For LLRPLRRLDVSW the value was 0.632 ± 0.0065.
